Assay in all cases: cross-linking; in vivo cysteine cross-linking with 180 μM aldrithiol-4, 20 min, 37 °C, in SUKO HEK-293T cells expressing single-cysteine STIM1 with or without UNC93B1-FLAG-MYC, treated or not with 0.5 μM thapsigargin for 5 min; non-reducing electrophoresis, blot with anti-STIM1
Assay [1] concerns the target STIM1-M241C (cysteine-less STIM1 with a single cysteine at residue 241, juxtamembrane region) (UniProt Q13586).
Assay [2] deals with STIM1-A230C (cysteine-less STIM1 with a single cysteine at residue 230, TM region) (UniProt Q13586).
For assay [3], the target named is STIM1-L251C (cysteine-less STIM1 with a single cysteine at residue 251, CC1 domain) (UniProt Q13586).

Broadly, the stoichiometry N is the number of molecules, sites or subunits per partner or assembly. As to “STIM1-M241C (cysteine-less STIM1 with a single cysteine at residue 241, juxtamembrane region) (from UniProt Q13586 23-685) (natural protein)”, the stoichiometry N in assay [1] is 2.
For “STIM1-A230C (cysteine-less STIM1 with a single cysteine at residue 230, TM region) (from UniProt Q13586 23-685) (natural protein)”, the stoichiometry N in assay [2] came out at 2.
Turning to “STIM1-L251C (cysteine-less STIM1 with a single cysteine at residue 251, CC1 domain) (from UniProt Q13586 23-685) (natural protein)”, in assay [3], the stoichiometry N worked out at 2.

The values are drawn from paper PMC8857484.
